Measured values taken from patent US8927007B2, “Formulations for treatment with glucosinolates” (priority 2010, dated 2015).

What was measured:
[1] = Activity of myrosinase immobilized on Concanavalin A-Sepharose gel (sinigrin hydrolysis, absorbance at 227 nm); assay type: biochemical
Protocol: (§1) Con-A gel (1 ml) was packed in a 3 ml syringe, washed with 5 portions of 5 ml of 10 mM midazole, 1 mD EDTA, 1 mM DTT, 30% glycerol, pH 6.0. Subsequently, 10 ml of purified myrosinase (2.9 units/ml) (from 7 day-old daikon sprouts as described in Shikita et al. Biochem J. (1999) 341:725-732) were applied to the column and the effluent collected and reapplied to the column 3 more times until no activity was detected in the effluent. After washing 5 times with 5 ml of 33 mM potassium phosphate buffer (pH 6.0), 1 mM EDTA, and 0.5 mM ascorbate, the gel was transferred to a 10 ml syringe and mixed with 10 ml of 10 mM sinigrin in 33 mM potassium phosphate buffer. Aliquots (20 μl of the solution was withdrawn from the mixture every 30 sec., diluted with 0.98 ml of the 33 mM phosphate buffer, and the absorbance was measured at 227 nm against the same buffer. After 10 collections (5 min), the gel was washed with 3 portions of 5 ml of 33 mM potassium phosphate buffer, and 3 portions of 5 ml 10 mM midazole, 1 mM EDTA, 1 mD DTT, 30% glycerol, pH 6.0, and stored at 4° C. for the next test.

[2] = Long-term stability of myrosinase on Concanavalin A-Sepharose gels; assay type: physicochemical
Protocol: as §1, with “After 10 collections (5 min), the gel was washed with 3 portions of 5 ml of 33 mM potassium phosphate buffer, and 3 portions of 5 ml 10 mM midazole, 1 mM EDTA, 1 mD DTT, 30% glycerol, pH 6.0, and stored at 4° C. for the next test.” left out

sinigrin hydrolyzed ([1]; immobilized on Con-A gel, 10 ml of 10 mM sinigrin in 33 mM potassium phosphate buffer, 10 collections (5 min)): more than 25 μmol
Substance: myrosinase (β-thioglucoside glucohydrolase) [Immobilized enzyme]
enzymatic activity when immobilized on Con-A gels ([1]; immobilized on Con-A gels): retain its enzymatic activity | stability without refrigeration ([2]; immobilized on Con-A gels, without refrigeration): stable indefinitely | changes of activity on storage ([2]; over at least the next 7 days, kept at 4° C. in 20% glycerol): no significant changes of activity | stability of immobilized enzyme at room temperature ([2]; room temperature, period of several weeks): stable | elution of the enzyme from the column ([2]; under conditions required for hydrolysis): no significant elution
